Results on ten molecules are retold here after US20230035659A1, “Compositions and Methods for TTR Gene Editing and Treating ATTR Amyloidosis Comprising a Corticosteroid or Use Thereof” (Intellia Therapeutics, Inc., priority 2019, published 2023).

Strand notation (5' to 3'): a small letter for the sugar, then the base; units joined by * are phosphorothioate-linked, units joined directly phosphodiester-linked; [ ] holds rarer units or linkages, { } end groups; capitals alone tell only the bases. m = 2'-O-methyl; r = 2'-OH (RNA)

B1: G000497: TTR sgRNA modified sequence, Human, SEQ ID NO: 104; guide sequence of CR003335 (nucleic acid)
guide: mC*mU*mG*rCrUrCrCrUrCrCrUrCrUrGrCrCrUrUrGrCrGrUrUrUrUrArGrAmGmCmUmAmGmAmAmAmUmAmGmCrArArGrUrUrArArArArUrArArGrGrCrUrArGrUrCrCrGrUrUrArUrCrAmAmCmUmUmGmAmAmAmAmAmGmUmGmGmCmAmCmCmGmAmGmUmCmGmGmUmGmCmU*mU*mU*mU
B2: G000501: TTR sgRNA modified sequence, Human, SEQ ID NO: 108; guide sequence of CR005300 (nucleic acid)
guide: mU*mC*mA*rCrArGrArArArCrArCrUrCrArCrCrGrUrArGrUrUrUrUrArGrAmGmCmUmAmGmAmAmAmUmAmGmCrArArGrUrUrArArArArUrArArGrGrCrUrArGrUrCrCrGrUrUrArUrCrAmAmCmUmUmGmAmAmAmAmAmGmUmGmGmCmAmCmCmGmAmGmUmCmGmGmUmGmCmU*mU*mU*mU
B3: G000487: TTR sgRNA modified sequence, Human, SEQ ID NO: 94; guide sequence of CR003357 (nucleic acid)
guide: mU*mU*mC*rUrUrUrGrGrCrArArCrUrUrArCrCrCrArGrGrUrUrUrUrArGrAmGmCmUmAmGmAmAmAmUmAmGmCrArArGrUrUrArArArArUrArArGrGrCrUrArGrUrCrCrGrUrUrArUrCrAmAmCmUmUmGmAmAmAmAmAmGmUmGmGmCmAmCmCmGmAmGmUmCmGmGmUmGmCmU*mU*mU*mU
B4: G000491: TTR sgRNA modified sequence, Human, SEQ ID NO: 98; guide sequence of CR003338 (nucleic acid)
guide: mA*mU*mA*rCrCrArGrUrCrCrArGrCrArArGrGrCrArGrGrUrUrUrUrArGrAmGmCmUmAmGmAmAmAmUmAmGmCrArArGrUrUrArArArArUrArArGrGrCrUrArGrUrCrCrGrUrUrArUrCrAmAmCmUmUmGmAmAmAmAmAmGmUmGmGmCmAmCmCmGmAmGmUmCmGmGmUmGmCmU*mU*mU*mU
B5: G000495: TTR sgRNA modified sequence, Human, SEQ ID NO: 102; guide sequence of CR003343 (nucleic acid)
guide: mC*mA*mG*rArGrGrArCrArCrUrUrGrGrArUrUrCrArCrGrUrUrUrUrArGrAmGmCmUmAmGmAmAmAmUmAmGmCrArArGrUrUrArArArArUrArArGrGrCrUrArGrUrCrCrGrUrUrArUrCrAmAmCmUmUmGmAmAmAmAmAmGmUmGmGmCmAmCmCmGmAmGmUmCmGmGmUmGmCmU*mU*mU*mU
B6: G000492: TTR sgRNA modified sequence, Human, SEQ ID NO: 99; guide sequence of CR003342 (nucleic acid)
guide: mC*mU*mU*rCrUrCrUrArCrArCrCrCrArGrGrGrCrArCrGrUrUrUrUrArGrAmGmCmUmAmGmAmAmAmUmAmGmCrArArGrUrUrArArArArUrArArGrGrCrUrArGrUrCrCrGrUrUrArUrCrAmAmCmUmUmGmAmAmAmAmAmGmUmGmGmCmAmCmCmGmAmGmUmCmGmGmUmGmCmU*mU*mU*mU
B7: G000498: TTR sgRNA modified sequence, Human, SEQ ID NO: 105; guide sequence of CR003359 (nucleic acid)
guide: mA*mG*mU*rGrArGrUrCrUrGrGrArGrArGrCrUrGrCrArGrUrUrUrUrArGrAmGmCmUmAmGmAmAmAmUmAmGmCrArArGrUrUrArArArArUrArArGrGrCrUrArGrUrCrCrGrUrUrArUrCrAmAmCmUmUmGmAmAmAmAmAmGmUmGmGmCmAmCmCmGmAmGmUmCmGmGmUmGmCmU*mU*mU*mU
B8: G000485: TTR sgRNA modified sequence, Human, SEQ ID NO: 92; guide sequence of CR003336 (nucleic acid)
guide: mC*mC*mU*rCrCrUrCrUrGrCrCrUrUrGrCrUrGrGrArCrGrUrUrUrUrArGrAmGmCmUmAmGmAmAmAmUmAmGmCrArArGrUrUrArArArArUrArArGrGrCrUrArGrUrCrCrGrUrUrArUrCrAmAmCmUmUmGmAmAmAmAmAmGmUmGmGmCmAmCmCmGmAmGmUmCmGmGmUmGmCmU*mU*mU*mU
B9: G000496: TTR sgRNA modified sequence, Human, SEQ ID NO: 103; guide sequence of CR005304 (nucleic acid)
guide: mG*mG*mC*rCrGrUrGrCrArUrGrUrGrUrUrCrArGrArArGrUrUrUrUrArGrAmGmCmUmAmGmAmAmAmUmAmGmCrArArGrUrUrArArArArUrArArGrGrCrUrArGrUrCrCrGrUrUrArUrCrAmAmCmUmUmGmAmAmAmAmAmGmUmGmGmCmAmCmCmGmAmGmUmCmGmGmUmGmCmU*mU*mU*mU
B10: G000503: TTR Cyno specific sgRNA modified sequence, SEQ ID NO: 115; guide sequence of CR005372 (nucleic acid)
guide: mA*mA*mA*rArGrGrCrUrGrCrUrGrArUrGrArGrArCrCrGrUrUrUrUrArGrAmGmCmUmAmGmAmAmAmUmAmGmCrArArGrUrUrArArArArUrArArGrGrCrUrArGrUrCrCrGrUrUrArUrCrAmAmCmUmUmGmAmAmAmAmAmGmUmGmGmCmAmCmCmGmAmGmUmCmGmGmUmGmCmU*mU*mU*mU

For the first data set, the system named is TTR. In words: TTR editing in primary human hepatocytes treated with LNP formulated Spy Cas9 mRNA (SEQ ID NO: 2) and sgRNAs, 12.5 ng mRNA. The data set is classed as cell-based. The following applies: LNP formulated Spy Cas9 mRNA (SEQ ID NO: 2) and sgRNA, 12.5 ng mRNA, 3.9 nM sgRNA, 72 hours. The protocol:
(§1) Primary liver hepatocytes. Primary human liver hepatocytes (PHH) and primary cynomolgus liver hepatocytes (PCH) (Gibco) were cultured per the manufacturer's protocol (Invitrogen, protocol 11.28.2012). In brief, the cells were thawed and resuspended in hepatocyte thawing medium with supplements (Gibco, Cat. CM7000) followed by centrifugation at 100 g for 10 minutes for human and 80 g for 4 minutes for cyno. The supernatant was discarded and the pelleted cells resuspended in hepatocyte plating medium plus supplement pack (Invitrogen, Cat. A1217601 and CM3000). Cells were counted and plated on Bio-coat collagen I coated 96-well plates (ThermoFisher, Cat. 877272) at a density of 33,000 cells/well for human or 60,000 cells/well for cyno (or 65,000 cells/well when assaying effects on TTR protein, described further below). Plated cells were allowed to settle and adhere for 6 or 24 hours in a tissue culture incubator at 37° C. and 5% CO2 atmosphere. After incubation cells were checked for monolayer formation and media was replaced with hepatocyte culture medium with serum-free supplement pack (Invitrogen, Cat. A1217601 and CM4000).
In general, the lipid nanoparticle components were dissolved in 100% ethanol with the lipid component of various molar ratios. The RNA cargos were dissolved in 25 mM citrate, 100 mM NaCl, pH 5.0, resulting in a concentration of RNA cargo of approximately 0.45 mg/mL. The LNPs were formulated with a lipid amine to RNA phosphate (N:P) molar ratio of about 4.5 or about 6, with the ratio of mRNA to gRNA at 1:1 by weight.
The LNPs were formed by microfluidic mixing of the lipid and RNA solutions using a Precision Nanosystems NanoAssemblr™ Benchtop Instrument, according to the manufacturer's protocol. A 2:1 ratio of aqueous to organic solvent was maintained during mixing using differential flow rates. After mixing, the LNPs were collected, diluted in water (approximately 1:1 v/v), held for 1 hour at room temperature, and further diluted with water (approximately 1:1 v/v) before final buffer exchange. The final buffer exchange into 50 mM Tris, 45 mM NaCl, 5% (w/v) sucrose, pH 7.5 (TSS) was completed with PD-10 desalting columns (GE). If required, formulations were concentrated by centrifugation with Amicon 100 kDa centrifugal filters (Millipore). The resulting mixture was then filtered using a 0.2 μm sterile filter. The final LNP was stored at −80° C. until further use.
(§2) Additional PCR was performed per the manufacturer's protocols (Illumina) to add chemistry for sequencing. The amplicons were sequenced on an Illumina MiSeq instrument. The reads were aligned to a reference genome (e.g., the human reference genome (hg38), the cynomologus reference genome (mf5), the rat reference genome (rn6), or the mouse reference genome (mm10)) after eliminating those having low quality scores. The resulting files containing the reads were mapped to the reference genome (BAM files), where reads that overlapped the target region of interest were selected and the number of wild type reads versus the number of reads which contain an insertion, substitution, or deletion was calculated.
(§3) The editing percentage (e.g., the “editing efficiency” or “percent editing” or “indel frequency”) is defined as the total number of sequence reads with insertions/deletions (“indels”) or substitutions over the total number of sequence reads, including wild type.
Lipid nanoparticle formulations of modified sgRNAs targeting human TTR and the cyno matched sgRNA sequences were tested on primary human hepatocytes and primary cyno hepatocytes in a dose response curve. Primary human and cyno hepatocytes were plated as described in Example 1. Both cell lines were incubated at 37° C., 5% CO2 for 24 hours prior to treatment with LNPs. The LNPs used in the experiments detailed in Tables 18-21 were prepared using the Nanoassemblr™ procedure, each containing the specified sgRNA and Cas9 mRNA (SEQ ID NO:2), each having Lipid. […]
As to B1, the “12.5 ng mRNA, 3.9 nM sgRNA, Avg % Edit” value worked out at 15.10%.

For the molecule B2, the “12.5 ng mRNA, 3.9 nM sgRNA, Avg % Edit” value came to 32.30%.

As to B3, the “12.5 ng mRNA, 3.9 nM sgRNA, Avg % Edit” value was 17.37%.

With B4, the “12.5 ng mRNA, 3.9 nM sgRNA, Avg % Edit” value came out at 31.60%.

On to B5, for which the “12.5 ng mRNA, 3.9 nM sgRNA, Avg % Edit” value worked out at 23.97%.

Take B6: the “12.5 ng mRNA, 3.9 nM sgRNA, Avg % Edit” value turned out to be 15.87%.

As to B7, the “12.5 ng mRNA, 3.9 nM sgRNA, Avg % Edit” value was determined as 24.43%.

On to B8, for which the “12.5 ng mRNA, 3.9 nM sgRNA, Avg % Edit” value is reported as 14.23%.

For the molecule B9, the “12.5 ng mRNA, 3.9 nM sgRNA, Avg % Edit” value is on record as 30.73%.

Another data set deals with potential off-target genomic sites. The data set is described as follows: Off-target analysis by oligo insertion based assay in primary human hepatocytes (sgRNAs). The data set is classed as cell-based. The settings on record: 100 ng Cas9 mRNA, 25 nM sgRNA, 12.5 nM donor oligo, 48 h. Here is the method: Off-target analysis of sgRNAs targeting TTR was performed in primary human hepatocytes (PHH) as described in Example 5, with the following modifications. PHH were plated at a density of 33,000 cells per well on collagen-coated 96-well plates as described in Example 1. Twenty-four hours post plating, cells were washed with media and transfected using Lipofectamine RNAiMAX (ThermoFisher, Cat. 13778150) as described in Example 1. Cells were transfected with a lipoplex containing 100 ng Cas9 mRNA, immediately followed by the addition of another lipoplex containing 25 nM of the sgRNA and 12.5 nM of the donor oligo (0.3 μL/well). Cells were lysed 48 hours post-transfection and gDNA was extracted and analyzed as further described in Example 5. The data is graphically represented in FIG. 20.
Fewer sites were detected in PHH for every guide tested as compared to the HekCas9 cell line, with no unique sites detected in PHH alone.
Consider B1, for which the “# Sites in PHH (off-target integration sites detected)” value (“# Sites in PHH” below) was determined as 3.

On to B2, for which the “# Sites in PHH” value amounted to 0.

As for B3, the “# Sites in PHH” value is on record as 0.

Turning to B4, the “# Sites in PHH” value is 7.

For the molecule B5, the “# Sites in PHH” value worked out at 1.

On to B6, for which the “# Sites in PHH” value was determined as 5.

Turning to B7, the “# Sites in PHH” value amounted to 19.

Regarding B8, the “# Sites in PHH” value amounted to 3.

With B9, the “# Sites in PHH” value stood at 0.

The test system of the next data set is TTR. In words: TTR editing dose response (EC50, maximum editing) in primary cyno hepatocytes treated with LNP formulated U-depleted Spy Cas9 mRNA and sgRNAs. The data set is classed as cell-based, cynomolgus monkey. The settings on record: LNP formulated U-depleted Spy Cas9 mRNA and cyno specific sgRNAs. Here is the method: as §1
For LNPs prepared using the cross-flow technique, the LNPs were formed by impinging jet mixing of the lipid in ethanol with two volumes of RNA solutions and one volume of water. The lipid in ethanol is mixed through a mixing cross with the two volumes of RNA solution. A fourth stream of water is mixed with the outlet stream of the cross through an inline tee. (See WO2016010840 FIG. 2.) The LNPs were held for 1 hour at room temperature, and further diluted with water (approximately 1:1 v/v). Diluted LNPs were concentrated using tangential flow filtration on a flat sheet cartridge (Sartorius, 100 kD MWCO) and then buffer exchanged by diafiltration into 50 mM Tris, 45 mM NaCl, 5% (w/v) sucrose, pH 7.5 (TSS). Alternatively, the final buffer exchange into TSS was completed with PD-10 desalting columns (GE). If required, formulations were concentrated by centrifugation with Amicon 100 kDa centrifugal filters (Millipore). The resulting mixture was then filtered using a 0.2 μm sterile filter. The final LNP was stored at 4° C. or −80° C. until further use.
as §2, §3
Lipid nanoparticle formulations of modified sgRNAs targeting human TTR and the cyno matched sgRNA sequences were tested on primary human hepatocytes and primary cyno hepatocytes in a dose response curve. Primary human and cyno hepatocytes were plated as described in Example 1. Both cell lines were incubated at 37° C., 5% CO2 for 24 hours prior to treatment with LNPs. The LNPs used in the experiments detailed in Tables 20-22 were prepared using the cross-flow procedure described above but purified using PD-10 columns (GE Healthcare Life Sciences) and concentrated using Amicon centrifugal filter units (Millipore Sigma), each containing the specified sgRNA and Cas9 mRNA (SEQ ID NO:1). […] LNPs were incubated in hepatocyte maintenance media containing 6% cyno serum at 37° C., 5% CO2 for 5 minutes. […]
Regarding B10, the “Max Editing” value is 83.41%.
